Source: patent US20100120063A1, “GPCR Arrestin Assays” (DISCOVERX CORPORATION, priority 2008, published 2010)
Where two headings read alike, the source gives them in different places.

Tests used:
Assay in all cases: cell-based or functional assay
[1] = target: OPRD1 (opiod receptor delta 1), not fused (UniProt P41143)
[2] = target: OPRM1-PK (opiod receptor mu-1 fused to PK) (E. coli) (UniProt P35372); parameters: EC50, arrestin-EA recruitment to OPRM1-PK (EFC) (M (unit not given)): unit not given beside the values
[3] = target: CCR4-PK2 (chemokine receptor 4 fused to PK2) (E. coli) (UniProt P51679)
[4] = target: SSTR4 with the EGS linker and PK (UniProt P31391)
Chain of SSTR4 with the EGS linker and PK (P31391 other isoform, or with tags, fused parts or gaps): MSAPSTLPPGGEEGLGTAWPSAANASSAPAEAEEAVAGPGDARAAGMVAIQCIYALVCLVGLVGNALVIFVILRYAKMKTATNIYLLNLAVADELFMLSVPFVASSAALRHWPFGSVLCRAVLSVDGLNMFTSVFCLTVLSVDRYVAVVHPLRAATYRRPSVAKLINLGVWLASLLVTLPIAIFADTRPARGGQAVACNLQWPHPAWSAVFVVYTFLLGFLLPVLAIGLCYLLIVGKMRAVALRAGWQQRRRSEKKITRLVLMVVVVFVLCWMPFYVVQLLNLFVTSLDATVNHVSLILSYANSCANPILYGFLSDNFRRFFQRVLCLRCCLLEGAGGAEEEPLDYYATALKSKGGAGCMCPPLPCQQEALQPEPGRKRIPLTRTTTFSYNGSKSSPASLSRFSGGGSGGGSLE

[5] = target: CHRM3 with the EGS linker and PK (UniProt P20309)
[6] = target: OPRM1-PK (opiod receptor mu-1 fused to PK) (E. coli) (UniProt P35372)
[7] = target: CHRM2-PK1 (cholinergic receptor, muscarinic 2, fused to PK1) (E. coli) (UniProt P08172)
[8] = target: CRHR2-PK1 (corticotropin releasing hormone receptor 2 fused to PK1) (E. coli) (UniProt Q13324)
[9] = target: CRTH2-PK2 (G Protein-coupled receptor 44 fused to PK2) (E. coli) (UniProt Q9Y5Y4)
[10] = target: OPRM1-PK2 (opiod receptor mu-1 fused to PK2) (E. coli) (UniProt P35372)
[11] = target: CHRM2-PK2 (cholinergic receptor, muscarinic 2, fused to PK2) (E. coli) (UniProt P08172)
[12] = target: SSTR1-PK2 (somatostatin receptor 1 fused to PK2) (E. coli) (UniProt P30872)
[13] = target: CCR4-PK1 (chemokine receptor 4 fused to PK1) (E. coli) (UniProt P51679)
[14] = target: SSTR4-PK without the EGS linker (UniProt P31391)
Chain of SSTR4-PK without the EGS linker (P31391 other isoform, or with tags, fused parts or gaps): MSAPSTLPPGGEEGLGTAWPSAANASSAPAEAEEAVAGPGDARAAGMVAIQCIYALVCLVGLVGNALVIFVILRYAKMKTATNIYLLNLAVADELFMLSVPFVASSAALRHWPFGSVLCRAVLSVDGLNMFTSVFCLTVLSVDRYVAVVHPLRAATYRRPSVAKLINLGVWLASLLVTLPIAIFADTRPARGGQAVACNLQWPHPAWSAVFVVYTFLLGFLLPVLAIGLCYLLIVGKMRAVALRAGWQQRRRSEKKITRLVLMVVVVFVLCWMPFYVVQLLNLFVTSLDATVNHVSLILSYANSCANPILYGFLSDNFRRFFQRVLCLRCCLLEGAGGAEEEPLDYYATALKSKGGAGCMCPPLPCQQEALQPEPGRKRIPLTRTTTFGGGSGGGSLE

OPRD1-PK fusion protein [15] = target: OPRD1-PK fusion protein
[16] = target: MC3R-PK2 (melanocortin 3 receptor fused to PK2) (E. coli) (UniProt P41968)
[17] = target: CRTH2-PK1 (G Protein-coupled receptor 44 fused to PK1) (E. coli) (UniProt Q9Y5Y4)
[18] = target: HRH3 with the EGS linker and PK (UniProt Q9Y5N1)
Chain of HRH3 with the EGS linker and PK (Q9Y5N1 other isoform, or with tags, fused parts or gaps): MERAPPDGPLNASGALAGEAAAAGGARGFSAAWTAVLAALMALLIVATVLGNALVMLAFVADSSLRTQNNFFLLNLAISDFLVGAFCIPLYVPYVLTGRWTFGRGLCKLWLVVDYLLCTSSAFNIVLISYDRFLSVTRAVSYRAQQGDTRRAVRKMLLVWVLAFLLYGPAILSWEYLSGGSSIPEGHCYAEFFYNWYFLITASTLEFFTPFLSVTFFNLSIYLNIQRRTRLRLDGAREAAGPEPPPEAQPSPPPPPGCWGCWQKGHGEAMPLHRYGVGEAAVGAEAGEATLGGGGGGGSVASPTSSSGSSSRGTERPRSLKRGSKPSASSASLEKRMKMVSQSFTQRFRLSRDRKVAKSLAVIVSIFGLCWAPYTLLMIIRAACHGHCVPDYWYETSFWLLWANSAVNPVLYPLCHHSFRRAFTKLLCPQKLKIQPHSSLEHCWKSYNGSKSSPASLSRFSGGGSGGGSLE

[19] = target: MC3R-PK1 (melanocortin 3 receptor fused to PK1) (E. coli) (UniProt P41968)
[20] = target: CRHR2-PK2 (corticotropin releasing hormone receptor 2 fused to PK2) (E. coli) (UniProt Q13324)
[21] = target: CHRM2-PK2 (cholinergic receptor, muscarinic 2, fused to PK2) (E. coli) (UniProt P08172); parameters: EC50 of oxotremorine for arrestin-EA recruitment, EFC (M (unit not given)): unit not given beside the values
OPRD1-PK fusion protein [22] = target: OPRD1-PK fusion protein; parameters: EC50, arrestin-EA recruitment to OPRD1-PK (EFC) (M (unit not given)): unit not given beside the values
[23] = target: CHRM2-PK2 (cholinergic receptor, muscarinic 2, fused to PK2) (E. coli) (UniProt P08172); remark: listed apart in the source
[24] = target: SSTR1-PK2 (somatostatin receptor 1 fused to PK2) (E. coli) (UniProt P30872); remark: listed apart in the source
[25] = target: OPRM1-PK (opiod receptor mu-1 fused to PK) (E. coli) (UniProt P35372); parameters: EC50, arrestin-EA recruitment to OPRM1-PK (EFC), cells headed 'OPRM1 + PRC' (M (unit not given)): unit not given beside the values
[26] = target: CRTH2-PK2 (G Protein-coupled receptor 44 fused to PK2) (E. coli) (UniProt Q9Y5Y4); parameters: EC50 of prostaglandin for arrestin-EA recruitment, EFC (M (unit not given)): unit not given beside the values
PROKR2, not fused = PROKR2, not fused (UniProt Q8NFJ6); parameters: EC50, arrestin-EA recruitment to OPRM1-PK (EFC), cells headed 'OPRM1 + PRC' (M (unit not given)): unit not given beside the values
Chain of PROKR2, not fused (Q8NFJ6 whole entry, the tested form may be a part): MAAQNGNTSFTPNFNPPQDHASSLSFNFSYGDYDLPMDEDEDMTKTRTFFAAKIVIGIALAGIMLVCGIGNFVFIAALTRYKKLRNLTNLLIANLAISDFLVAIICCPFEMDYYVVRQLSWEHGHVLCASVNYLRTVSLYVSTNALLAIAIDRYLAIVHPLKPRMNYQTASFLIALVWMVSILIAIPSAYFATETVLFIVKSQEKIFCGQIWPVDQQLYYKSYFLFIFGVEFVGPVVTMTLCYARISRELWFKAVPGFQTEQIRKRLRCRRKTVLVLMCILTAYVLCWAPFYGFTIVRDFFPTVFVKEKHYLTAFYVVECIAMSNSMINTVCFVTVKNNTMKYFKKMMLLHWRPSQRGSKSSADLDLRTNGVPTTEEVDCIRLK

deltorphin (peptide)
EC50, arrestin-EA recruitment to co-expressed OPRM1-PK (EFC, transactivation) [1]: 8.38 nM
LOGEC50, arrestin-EA recruitment to co-expressed OPRM1-PK (EFC, transactivation) (log M (unit not given)) [1]: -8.08
EC50, arrestin-EA recruitment to OPRM1-PK (EFC) (M (unit not given)) [2]: 0.0007
LOGEC50, arrestin-EA recruitment to OPRM1-PK (EFC) (log M (unit not given)) [2]: -3.12

DADLE (peptide)
LOGEC50, arrestin-EA recruitment to OPRM1-PK (EFC) (log M (unit not given)) [2]: -6.95

arrestin-EA fusion protein (beta arrestin fused at its C terminus to the EA fragment of β-galactosidase) (from UniProt P49407 1-418; P00722 48-1024)
S:B, EFC chemiluminescence [3]: 3
BOTTOM of the agonist dose-response fit, EFC chemiluminescence [4]: 1380
EC50 of the agonist (not named) for arrestin-EA recruitment, EFC [4]: 0.732 nM
LOGEC50 of the agonist (not named) for arrestin-EA recruitment, EFC (log M (unit not given)) [4]: -9.14
TOP of the agonist dose-response fit, EFC chemiluminescence [4]: 3420
BOTTOM of the agonist dose-response fit, EFC chemiluminescence [5]: 546
EC50 of the agonist (not named) for arrestin-EA recruitment, EFC [5]: 82.2 nM
LOGEC50 of the agonist (not named) for arrestin-EA recruitment, EFC (log M (unit not given)) [5]: -7.08
TOP of the agonist dose-response fit, EFC chemiluminescence [5]: 1550
BOTTOM of the OPRM1-agonist dose-response fit, EFC chemiluminescence, U2OS cells with OPRM1-PK [6]: 1010
S:B with deltorphin, EFC chemiluminescence, U2OS cells with OPRM1-PK and OPRD1 [6]: 7.4
S:B, EFC chemiluminescence [6]: 26
TOP of the OPRM1-agonist dose-response fit, EFC chemiluminescence, U2OS cells with OPRM1-PK [6]: 10900
S:B, EFC chemiluminescence [7]: 1.6
S:B, EFC chemiluminescence [8]: 13
S:B, EFC chemiluminescence [9]: 2.6
S:B, EFC chemiluminescence [10]: 8
S:B, EFC chemiluminescence [11]: 6.1
BOTTOM of the agonist dose-response fit, EFC chemiluminescence [12]: 4800
EC50 of the agonist (not named) for arrestin-EA recruitment, EFC [12]: 8.15 nM
LOGEC50 of the agonist (not named) for arrestin-EA recruitment, EFC (log M (unit not given)) [12]: -8.09
TOP of the agonist dose-response fit, EFC chemiluminescence [12]: 10500
S:B, EFC chemiluminescence [13]: 19
response in the EFC arrestin assay, CHO cells [14]: 1.5 fold
BOTTOM of the OPRM1-agonist dose-response fit, EFC chemiluminescence, CHO cells with OPRD1-PK and OPRM1 (OPRD1-PK fusion protein [15]): 20.3
S:B, EFC chemiluminescence, CHO cells with OPRD1-PK and OPRM1 (OPRD1-PK fusion protein [15]): 31.9
TOP of the OPRM1-agonist dose-response fit, EFC chemiluminescence, CHO cells with OPRD1-PK and OPRM1 (OPRD1-PK fusion protein [15]): 201
S:B, EFC chemiluminescence [16]: 3.2
S:B, EFC chemiluminescence [17]: 1
BOTTOM of the agonist dose-response fit, EFC chemiluminescence [18]: 273
EC50 of the agonist (not named) for arrestin-EA recruitment, EFC [18]: 55.2 nM
LOGEC50 of the agonist (not named) for arrestin-EA recruitment, EFC (log M (unit not given)) [18]: -7.26
TOP of the agonist dose-response fit, EFC chemiluminescence [18]: 935
S:B, EFC chemiluminescence [19]: 1
S:B, EFC chemiluminescence [20]: 17
BOTTOM of the agonist dose-response fit, EFC chemiluminescence [21]: 336
EC50 of oxotremorine for arrestin-EA recruitment, EFC (M (unit not given)) [21]: 6.29e-05
LOGEC50 of oxotremorine for arrestin-EA recruitment, EFC (log M (unit not given)) [21]: -5.2
TOP of the agonist dose-response fit, EFC chemiluminescence [21]: 2040
BOTTOM of the OPRM1-agonist dose-response fit, EFC chemiluminescence, CHO cells with OPRD1-PK (OPRD1-PK fusion protein [22]): 520
TOP of the OPRM1-agonist dose-response fit, EFC chemiluminescence, CHO cells with OPRD1-PK (OPRD1-PK fusion protein [22]): 2810
BOTTOM of the DADLE dose-response fit, EFC chemiluminescence, U2OS cells with OPRM1-PK [2]: 626
S:B with DADLE, EFC chemiluminescence, U2OS cells with OPRM1-PK [2]: 32.7
S:B with deltorphin, EFC chemiluminescence, U2OS cells with OPRM1-PK only [2]: 2.5
TOP of the DADLE dose-response fit, EFC chemiluminescence, U2OS cells with OPRM1-PK [2]: 17100
EC50 of oxotremorine for arrestin-EA recruitment, EFC [23]: 6290 nM
BOTTOM of the agonist dose-response fit, EFC chemiluminescence [24]: 4790
Log EC50 of the agonist (not named) for arrestin-EA recruitment, EFC (log M (unit not given)) [24]: -8.07
BOTTOM of the EG-VEGF dose-response fit, EFC chemiluminescence, cells headed 'OPRM1 + PRC' [25]: 25.8
TOP of the EG-VEGF dose-response fit, EFC chemiluminescence, cells headed 'OPRM1 + PRC' [25]: 57.3
BOTTOM of the agonist dose-response fit, EFC chemiluminescence [26]: 29200
LOGEC50 of prostaglandin for arrestin-EA recruitment, EFC (log M (unit not given)) [26]: -6.76
TOP of the agonist dose-response fit, EFC chemiluminescence [26]: 76000

EG-VEGF (from UniProt P58294 20-105) (ligand)
EC50, arrestin-EA recruitment to OPRM1-PK (EFC), cells headed 'OPRM1 + PRC' (M (unit not given)) (PROKR2, not fused): 3.21e-08
LOGEC50, arrestin-EA recruitment to OPRM1-PK (EFC), cells headed 'OPRM1 + PRC' (log M (unit not given)) (PROKR2, not fused): -7.49

DADLE (peptide; in M (unit assumed))
EC50, arrestin-EA recruitment to OPRM1-PK (EFC) (M (unit not given)) [2]: 1.11e-07

DAMAGO, [D-Ala2,N-Me-Phe4,Gly5-ol]-enkephalin (peptide)
EC50, arrestin-EA recruitment to OPRD1-PK (EFC) (M (unit not given)) (OPRD1-PK fusion protein [22]): 3.64e-05
LOGEC50, arrestin-EA recruitment to OPRD1-PK (EFC) (log M (unit not given)) (OPRD1-PK fusion protein [22]): -4.44

arrestin-EA fusion protein (beta arrestin fused at its C terminus to the EA fragment of β-galactosidase) (from UniProt P49407 1-418; P00722 48-1024) (other; in M (unit assumed))
EC50 of prostaglandin for arrestin-EA recruitment, EFC (M (unit not given)) [26]: 1.74e-07
